The record followed here is the supplement of paper PMC7125110.

B1: glmS ribozyme (parent)
chain: AUAAAAGCGCCAGAACUACAGAAAUGUAGUUGACGAGGAGGAGGUUUAUCGAAUUUUCGGCGGAUGCCUCCAAA

± gives the standard error. Fewer inactive variants are shown than the library holds. Bounds are passed on as bounds.

Common to all, as to settings: with glucosamine-6-phosphate
Variants of B1 are the subject of series [1]. Put plainly: self-cleavage kobs at 40 uM GlcN6P; higher = faster cleavage; RNA array. The procedure, abridged: (§1)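 Tracking of barcoded ribozyme variants used a hybridised Cy3 probe at 37 °C, after in situ transcription by E. coli RNA polymerase on sequenced MiSeq chips. The flowed solution held 40 μM to 10 mM glucosamine-6-phosphate in HEPES/KCl/Mg(OAc)2 buffer, and imaging ran over ~14 h. kobs was taken from exponential decay fits of normalised per-tile medians, and kcat and KM from weighted Michaelis–Menten fits.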

Series [2] covers variants of B1. Put plainly: self-cleavage kobs at 160 uM GlcN6P; higher = faster cleavage; RNA array. In a few lines:
as §1

Variants of B1 are the subject of series [3]. Put plainly: self-cleavage kobs at 640 uM GlcN6P; higher = faster cleavage; RNA array. In a few lines:
as §1

In series [4] the parent is B1. Put plainly: self-cleavage kobs at 2500 uM GlcN6P; higher = faster cleavage; RNA array. The procedure, abridged: as §1
Series [5] covers variants of B1. Put plainly: self-cleavage kobs at 10000 uM GlcN6P; higher = faster cleavage; RNA array. In a few lines:
as §1

As to AUAAAAUCCCCAGAACUACAGAAAUGUAGUUGACGAGGAGGAGGUUUAUCGAAUUUUCGGCGGAUGCCUCCAAA [G7U G9C], the “self-cleavage kobs at 40 uM GlcN6P” value with glucosamine-6-phosphate [1] is below 1e-05 s⁻¹. The “self-cleavage kobs at 160 uM GlcN6P” value with glucosamine-6-phosphate [2] was below 1e-05 s⁻¹. Also, the “self-cleavage kobs at 640 uM GlcN6P” value with glucosamine-6-phosphate [3] is below 1e-05 s⁻¹. Further, in the series with glucosamine-6-phosphate [4], the “self-cleavage kobs at 2500 uM GlcN6P” value is below 1e-05 s⁻¹. Besides, the “self-cleavage kobs at 10000 uM GlcN6P” value with glucosamine-6-phosphate [5] was below 1e-05 s⁻¹.

Take AUAAAAGUGCCAGAACUACAGAAAUGUAGUUGAGGAGGAGGAGGUUUAUCGAAUUUUCGGCGGAUGCCUCCAAA [C8U C34G]: in the series with glucosamine-6-phosphate [1], the “self-cleavage kobs at 40 uM GlcN6P” value was below 1e-05 s⁻¹. In addition, the “self-cleavage kobs at 160 uM GlcN6P” value in the series with glucosamine-6-phosphate [2] was below 1e-05 s⁻¹. Further, in the series with glucosamine-6-phosphate [5], the “self-cleavage kobs at 10000 uM GlcN6P” value is below 1e-05 s⁻¹.

As to AUAAAAGCGCCAGCACUACAGAAAUGUAGUGGACGAGGUGGAGGUUUAUCGAAUUUUCGGCGGAUGCCUCCAAA [A14C U31G A39U], the “self-cleavage kobs at 40 uM GlcN6P” value with glucosamine-6-phosphate [1] amounted to 0.000119 ± 2.4e-05 s⁻¹. Moreover, the “self-cleavage kobs at 640 uM GlcN6P” value with glucosamine-6-phosphate [3] stood at 0.0016 ± 0.00039 s⁻¹. Moreover, in the series with glucosamine-6-phosphate [5], the “self-cleavage kobs at 10000 uM GlcN6P” value was found to be 0.0112 ± 0.003 s⁻¹.

AUAAAAGCGCCAGAACUACAGAAAUGUAGUUGACGAGGAGGAGGUUUAUCGAAUUUUCGCCGGAUGGCUCCAAA [G60C C67G]: the “self-cleavage kobs at 40 uM GlcN6P” value in the series with glucosamine-6-phosphate [1] was below 1e-05 s⁻¹. Moreover, in the series with glucosamine-6-phosphate [2], the “self-cleavage kobs at 160 uM GlcN6P” value is below 1e-05 s⁻¹. The “self-cleavage kobs at 640 uM GlcN6P” value with glucosamine-6-phosphate [3] is below 1e-05 s⁻¹. In addition, in the series with glucosamine-6-phosphate [5], the “self-cleavage kobs at 10000 uM GlcN6P” value is below 1e-05 s⁻¹.

With AUAAAAGCGCCAGAACUACAGAAAUGUAGUUGACGAGGAGGAGGUUUAUCGAAUUUUCGUCGGAUGCCUACAAA [G60U C70A], the “self-cleavage kobs at 40 uM GlcN6P” value with glucosamine-6-phosphate [1] is below 1e-05 s⁻¹. Also, the “self-cleavage kobs at 160 uM GlcN6P” value in the series with glucosamine-6-phosphate [2] is below 1e-05 s⁻¹. Also, the “self-cleavage kobs at 640 uM GlcN6P” value with glucosamine-6-phosphate [3] was below 1e-05 s⁻¹. Moreover, the “self-cleavage kobs at 10000 uM GlcN6P” value with glucosamine-6-phosphate [5] was below 1e-05 s⁻¹.

AUAAAAGGGCCAGAACUACAGAAAUGUAGUUGACGAGGAGGAGGUUUAUCGAAUUUUCGUCGGUUGCCUCCAAA [C8G G60U A64U]: the “self-cleavage kobs at 40 uM GlcN6P” value with glucosamine-6-phosphate [1] was below 1e-05 s⁻¹. Also, the “self-cleavage kobs at 10000 uM GlcN6P” value with glucosamine-6-phosphate [5] was below 1e-05 s⁻¹.

Regarding AUAAAAGCGCCGGAACUACAGAAAUGUAGUUGACGAGGAGUAGGUUUAUCGGAAUUUCGGCGGAUGCCUCCAAA [A12G G41U A52G U54A], the “self-cleavage kobs at 40 uM GlcN6P” value with glucosamine-6-phosphate [1] was below 1e-05 s⁻¹.

Turning to AUAAAAUCGCCAGAACUACAGAAAUGUAGUUUACGAGGAGGAGGUUUAUCGAAUUUUCGGCGGAUGGCUCCAAA [G7U G32U C67G], in the series with glucosamine-6-phosphate [1], the “self-cleavage kobs at 40 uM GlcN6P” value was below 1e-05 s⁻¹. The “self-cleavage kobs at 2500 uM GlcN6P” value with glucosamine-6-phosphate [4] is below 1e-05 s⁻¹. Moreover, the “self-cleavage kobs at 10000 uM GlcN6P” value with glucosamine-6-phosphate [5] is below 1e-05 s⁻¹.

For the variant AUAAAAGCGCCAGAACUACAGAAAUGUAGUUGACUAGGAGGAGGUUUAUCGAAUUUUCGGCGGAUCUCUCCAAA [G35U G66C C67U], in the series with glucosamine-6-phosphate [1], the “self-cleavage kobs at 40 uM GlcN6P” value is below 1e-05 s⁻¹.

As to AUAAAAGCGCCAGAACUACAGAAAUGUAGUUUACGAGAAGGAGGUUUAUCGAAUUUUCGGCGGAUGCCUCCAAA [G32U G38A], the “self-cleavage kobs at 40 uM GlcN6P” value with glucosamine-6-phosphate [1] is below 1e-05 s⁻¹. The “self-cleavage kobs at 10000 uM GlcN6P” value with glucosamine-6-phosphate [5] is below 1e-05 s⁻¹.

Take AUAAAAGCGCCAGAACUACAGAAAUGUAGUUGACGAGGAGGUGGUUUAUCGAAUUUUCGGCGGAUGCCUCGAAA [A42U C71G]: the “self-cleavage kobs at 40 uM GlcN6P” value with glucosamine-6-phosphate [1] was below 1e-05 s⁻¹. In addition, the “self-cleavage kobs at 160 uM GlcN6P” value with glucosamine-6-phosphate [2] was below 1e-05 s⁻¹. Moreover, in the series with glucosamine-6-phosphate [5], the “self-cleavage kobs at 10000 uM GlcN6P” value is 3.51e-05 ± 1e-05 s⁻¹.

On to AUAAAAGCGCCAGAACUACAGAAAUGUAGUUGACUAGGAGUAGGUUUAUCGAAUUUUCGGCGGAUGCCUUCAAA [G35U G41U C70U], for which the “self-cleavage kobs at 40 uM GlcN6P” value with glucosamine-6-phosphate [1] was below 1e-05 s⁻¹. The “self-cleavage kobs at 10000 uM GlcN6P” value with glucosamine-6-phosphate [5] was below 1e-05 s⁻¹.

For the variant AUAAAAGCGCGAGAACUACAGAAAUGUAGUUGACGAGGAGGAGGUUUAUCGAAUUUUCGGCGGAUGCCGCCAAA [C11G U69G], in the series with glucosamine-6-phosphate [1], the “self-cleavage kobs at 40 uM GlcN6P” value worked out at 3.62e-05 ± 1.4e-05 s⁻¹. In addition, the “self-cleavage kobs at 160 uM GlcN6P” value with glucosamine-6-phosphate [2] was found to be 0.000125 ± 2.3e-05 s⁻¹. The “self-cleavage kobs at 640 uM GlcN6P” value with glucosamine-6-phosphate [3] is 0.000184 ± 3.4e-05 s⁻¹. Also, the “self-cleavage kobs at 2500 uM GlcN6P” value with glucosamine-6-phosphate [4] was determined as 8.88e-05 ± 1.6e-05 s⁻¹.
